Results on three substances are retold here after patent publication US7514397.

The experiment has as its target viral gp41 of HIV-1IIIB (HIV-1IIIB). Nature of the experiment: cell-based or functional assay.
In the case of “M41, maltose binding protein fusion with the extracellular domain of HIV-1 gp41 (540-686) (from UniProt P03377 540-686)”, the Cell fusion (IC90) is more than 50 µM and the HIV infectivity (IC90) was more than 16 µM.
On the same counts, the results for “M41-P, M41 fusion protein with an Ile to Pro mutation at position 578 (from UniProt P0AEX9 27-392; P03377 540-686)” are 0.083 µM and 0.066 µM.
As to “M41-PΔ178, M41-P fusion protein from which the DP-178 region has been deleted (gp41 540-642, Ile578Pro) (from UniProt P03377 540-642)”, the Cell fusion (IC90) is more than 50 µM and the HIV infectivity (IC90) was more than 8 µM.
